Results taken from paper PMC4323281 (Nature, 2014).

Target: the molecule itself
Assay: AUC

B1: Archaeoglobus fulgidus alanyl-tRNA synthetase (AlaRS), wild-type, full-length (enzyme, UniProt O28029 1-906, looked up)
chain: MTLDEEYLDITFLTENGFVRKRCPKCGKHFWTADPEREICGDPPCESYSFIGNPVFKKPFELDEMREYYLNFFERRGHGRIERYPVVARWRTDIYLTIASIADFQPFVTSGVAPPPANPLTISQPCIRLDDLDSVGRTGRHLTLFEMMAHHAFNYPGKEIYWKNETVAYCTELLNELGVKKEDIVYKEEPWAGGGNAGPCLEAIVGGLEVATLVFMNLEEHPEGDIEIKGARYRKMDNYIVDTGYGLERFVWASKGTPTVYDAIFPEVVDTIIDNSNVSFNREDERVRRIVAESSKLAGIMGELRGERLNQLRKSVADTVGVSVEELEGIVVPLEKVYSLADHTRCILFMLGDGLVPSNAGAGYLARLMIRRSLRLAEELELGLDLYDLVEMHKKILGFEFDVPLSTVQEILELEKERYRTTVSKGTRLVERLVERKKKLEKDDLIELYDSHGIPVELAVGIAAEKGAEVEMPKDIYAELAKRHSKAEKVQEKKITLQNEYPATEKLYYDDPTLLEFEAEVIGVEGDFVILNRSAFYPESGGQDNDVGYLIANGGKFEVVDVLEADGVVLHVVKGAKPEVGTKVKGVIDSDVRWRHMRHHSATHVLLYSLQKVLGNHVWQAGARKEFSKARLDVTHFRRPSEEEIKEIEMLANREILANKPIKWEWMDRIEAERKFGFRLYQGGVPPGRKIRVVQVGDDVQACGGTHCRSTGEIGMLKILKVESIQDGVIRFEFAAGEAAIEAVEEMERLLREASSILRVEPAKLPKTVERFFEEWKDQRKEIERLKSVIADLWADILMERAEEFDSMKVVAEVVDADMQALQKLAERLAEKGAVGCLMAKGEGKVFVVTFSGQKYDARELLREIGRVAKGSGGGRKDVAQGAVQQLLDREEMLDVIFRFLSEHEG
- stoichiometry N: 2
